Each block holds one molecule with its values, some of them ahead of it.
What was measured:
[1] = Particle size measurement (Malvern Zetasizer / dynamic light scattering); type: physicochemical; settings: approximately 150 kD
Method: Lipids were dissolved in chloroform and used to prepare liposomes comprised of sphingosine:cholesterol:DAPC at a mole ratio of 3:2:5 in water as previously described. Briefly, the lipid mixture was dried with nitrogen gas to achieve a thin film that was incubated under vacuum overnight before rehydration with distilled water and sonication to achieve clarity (1-2 min). Lactosylceramide or PEG-ceramide were included in the chloroform-lipid mixture and incorporated into liposomes at a 5% mole ratio as previously described. […] The diameters of these preparations were 237.9±7.5 (lactose) and 273.4±10.4 (PEG) nm as reported previously.
Sphingosine, cholesterol, 1,2-diarachidoyl-sn-glycero-3-phosphocholine (DAPC), and C16-PEG750-Ceramide were purchased from Avanti® Polar Lipids (Alabaster, Ala.) and used to prepare liposomes at a 3:2:4.5:0.5 mole ratio (respectively) as previously described. The liposomes preparations have an average diameter of 135 nm, a PDI of 0.137, and were prepared in 5% dextrose to adjust the tonicity of the injection solution. […] A Malvern Zetasizer Nano-ZS was used for all size measurements.
FITC-dextran was chosen for these studies since it is commonly used to quantify endothelial and epithelial cell barrier permeability.

[2] = Direct injection of IFN-γ into tumors, persistence of cytokine levels; type: in vivo; settings: preliminary, data not shown
Text: In contrast to inflammatory cytokines (e.g., TNF-α, IFN-γ, IFN-α, IFN-β) that increase vascular permeability, IFN-λ works specifically on the endothelial/epithelial cells to strengthen barrier integrity and prevent viral invasion. […] Ultimately, the lack of a tightening response in the tumor epithelium allows nanoparticles unaltered access to the tumor upon repeat administration.

CT26 tumor-bearing mice = assay: Doxil accumulation in organs and tumor after IFN-λ pre-treatment; type: in vivo, Balb/c mice
Text: Tumor Bearing Experiments: Prior to treatment, female immunocompetent Balb/c mice 6-10 weeks old were acquired from Jackson labs (Bar Harbor, Me.) and allowed to acclimate for one week. The mice were then inoculated in the right flank with approximately 1 million CT26 murine colon carcinoma cells (ATCC #CRL-2638). Tumors were allowed to grow for approximately 7 days or until tumor size reached at least 100 mm^3. […] Twenty-four hours after the dextran/Doxil® injections, animals were euthanized, and organs collected for dextran/drug accumulation analysis.
A standard curve of fluorescence for doxorubicin was determined through fluorescence measurements of a serially diluted stock solution of the Doxil® in 90% isopropyl alcohol (IPA) acidified with HCl to a final concentration of 0.075 M. Fluorescence measurements were conducted in a CellStar™ μClear™ 96-Well, Cell Culture-Treated, Flat-Bottom Microplate from Greiner Bio-One™ (Monroe, N.C.) at an excitation of 470 nm and emission of 595 nm using a Molecular Devices (San Jose, Calif.) SpectraMax® M5. […] The equation from the resulting standard curve of fluorescence from each specific organ was used to calculate the total amount of doxorubicin extracted from a corresponding Doxil® treated organ.
Organs collected from animals were immediately flash-frozen in liquid nitrogen and stored at −80° C. until analysis. […] Doxorubicin fluorescence of the extracted solution was then measured, and total doxorubicin accumulation was then calculated using the doxorubicin fluorescence standard curves described above. […]
To assess the effects of IFN-λ pre-treatment on Doxil® accumulation, mice were intravenously injected with either 100 μL of 1×PBS or 1 μg of IFN-λ in 100 μL 1×PBS. […] After an additional 24 hours following Doxil administration, tissues were harvested from experimental mice and the total Doxil accumulation in tissues was determined using the extraction method and standard curves described above. […]

[3] = tested on: IFNLR1 (interferon lambda receptor 1) gene expression; assay: IFNLR1 gene expression by RT-qPCR in primary human liver epithelial cells; type: cell-based; settings: 24 hours treatment
Method: (§1) Interferon Lambda Receptor 1 (IFNλR1) mRNA Expression Quantification by Reverse Transcription-Polymerase Chain Reaction (RT-qPCR): Human Lung Microvascular Endothelial Cells (540-05A) (HLMVECs) purchased from Sigma-Aldrich® (Burlington, Mass.) were cultured and left untreated or treated with 100 ng/mL recombinant human IL-29 (R&D Systems® 1598-IL-025) or 100 ng/mL IL-28A/B (R&D Systems® 8417-IL-025/5259-IL-025) for 24 hours. […] After 24 hours, using TaqMan™ Fast Advanced Cells-to-CT™ kit purchased from Invitrogen™ (Waltham, Mass.), cells were collected according to manufacturer recommendations and IFNλR1 expression was quantified. PCR assay ID Hs00417120_ml (ThermoFisher Scientific™, Agawam, M A) was used to quantify IFNλR1 gene expression and PCR assay ID Hs03928985_g1 (ThermoFisher Scientific™, Agawam, M A) was used to quantify reference gene RNA18S5 expression.
(§2) To test the hypothesis that microvascular endothelial cells and liver epithelial cells respond to IFN-λ, real-time quantitative polymerase chain reaction (RT-qPCR) analysis was used to determine Interferon Lambda Receptor 1 (IFN λR1) gene expression in primary Human Lung Microvascular Endothelial Cells and primary Human Liver Epithelial Cells (TABLES 4 and 5). […] However, liver epithelial cells do express IFN λR1 and show an increase in IFN λR1 gene expression in response to IFN-λ and lipoplex treatment.

IFNLR1 gene expression = IFNLR1 gene expression by RT-qPCR in primary human lung microvascular endothelial cells; type: cell-based; settings: 24 hours treatment, 100 ng/mL
Method: as §1, §2

- hydrodynamic diameter [1]: approximately 100 nm
Molecule: FITC-dextran

Molecule: IFN-γ: interferon gamma injected directly into tumors
- time cytokine levels are maintained in the tumor [2]: at least 4 h

B1: IFN-λ: recombinant mouse IFN-λ2 (R&D Systems, 4635-ML-025/CF) (protein, UniProt Q4VK74 20-193, looked up)
Interferon lambda-2: DPVPRATRLPVEAKDCHIAQFKSLSPKELQAFKKAKDAIEKRLLEKDLRCSSHLFPRAWDLKQLQVQERPKALQAEVALTLKVWENMTDSALATILGQPLHTLSHIHSQLQTCTQLQATAEPRSPSRRLSRWLHRLQEAQSKETPGCLEASVTSNLFRLLTRDLKCVANGDQCV
- Doxil accumulation in liver, spleen vs PBS pretreatment (CT26 tumor-bearing mice; 1 μg IFN-λ iv 24 h before 10 mg/kg Doxil): reduction
- Doxil accumulation in the skin, kidney, lungs, and heart vs PBS pretreatment (CT26 tumor-bearing mice; 1 μg IFN-λ iv 24 h before 10 mg/kg Doxil, tissues 24 h later): significantly reduces
- Doxil accumulation in tumor and plasma vs PBS pretreatment (CT26 tumor-bearing mice; not statistically significant): increase

B2: IL29: recombinant human IL-29 (R&D Systems 1598-IL-025) (protein, UniProt Q8IU54 20-200, looked up)
Interferon lambda-1: GPVPTSKPTTTGKGCHIGRFKSLSPQELASFKKARDALEESLKLKNWSCSSPVFPGNWDLRLLQVRERPVALEAELALTLKVLEAAAGPALEDVLDQPLHTLHHILSQLQACIQPQPTAGPRPRGRLHHWLHRLQEAPKKESAGCLEASVTFNLFRLLTRDLKYVADGNLCLRTSTHPEST
- ΔΔCt ([3]; vs untreated): −1.092
- 2^-ΔΔCt (Relative fold-change compared to untreated) ([3]; 100 ng/mL cytokine or 1 μg/mL lipoplexes): 2.132
- ΔCt mean ([3]; 100 ng/mL cytokine or 1 μg/mL lipoplexes, reference RNA18S5): 19.476
- IFN λR1 expression in endothelial cells (IFNLR1 gene expression): no expression detected
- ΔCt mean (IFNLR1 gene expression): No Amplification

From patent US20230190653A1, “METHOD FOR REDUCING OFF-TARGET UPTAKE OR ACCUMULATION OF AGENTS” (The Regents of the University of Colorado, A Body Corporate, priority 2021, published 2023)
